Key:
[1] = molecular target: T1, recombinant human BCMA, in house material (human, UniProt Q02223 4-53, limits assumed); assay: ProteOn SPR run 1, antibody captured on Protein A, 25C
T1 construct: also called Human in house BCMA; In house human BCMA

[2] = molecular target: T2, recombinant cyno BCMA, in house material (cyno, UniProt A0A2K5UD97 4-52); assay: as above
T2 construct: also called Cyno in house BCMA
T2 sequence (A0A2K5UD97 entry or part of it): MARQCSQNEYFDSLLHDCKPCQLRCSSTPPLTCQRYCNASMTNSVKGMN

T1 sequence (Q02223 4-53 limits assumed): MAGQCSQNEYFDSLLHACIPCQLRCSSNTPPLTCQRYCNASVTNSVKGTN

B1: CA8 humanised J0M0 (antibody, human IgG1, kappa, V domains shown)
VH: QVQLVQSGAEVKKPGSSVKVSCKASGGTFSNYWMHWVRQAPGQGLEWMGATYRGHSDTYYNQKFKGRVTITADKSTSTAYMELSSLRSEDTAVYYCARGAIYNGYDVLDNWGQGTLVTVSS
VL: DIQMTQSPSSLSASVGDRVTITCSASQDISNYLNWYQQKPGKAPKLLIYYTSNLHSGVPSRFSGSGSGTDFTLTISSLQPEDFATYYCQQYRKLPWTFGQGTKLEIKR
notes: Humanised CA8, heavy chain J0 with light chain M0, human IgG1 kappa; also called CA8 J0M0
Kd [1]: 435 pM
Kd [2]: 648 pM

B2: S307118G03 humanised H3L1 (antibody, human IgG1, kappa, V domains shown)
VH: QVQLVQSGAEVKKPGSSVKVSCKASGYTFTDYYMKWVRQAPGQGLEWIGEIYPNNGGITYNQKFKGRATLTVDKSTSTAYMELSSLRSEDTAVYYCANGYEFVYWGQGTLVTVSS
VL: DIQMTQSPSSLSASVGDRVTITCSASQGISNYLNWYQQKPGKAPKLLIYYTSSLHSGVPSRFSGSGSGTDYTLTISSLQPEDFATYYCQQYSKLPWTFGQGTKLEIKR
notes: Humanised, human IgG1 kappa
Kd [1]: 4860 pM
binding result [2]: no binding

B3: CA8 humanised J0M1 (antibody, human IgG1, kappa, V domains shown)
VH: QVQLVQSGAEVKKPGSSVKVSCKASGGTFSNYWMHWVRQAPGQGLEWMGATYRGHSDTYYNQKFKGRVTITADKSTSTAYMELSSLRSEDTAVYYCARGAIYNGYDVLDNWGQGTLVTVSS
VL: DIQMTQSPSSLSASVGDRVTITCSASQDISNYLNWYQQKPGKAPKLLIYYTSNLHSGVPSRFSGSGSGTDYTLTISSLQPEDFATYYCQQYRKLPWTFGQGTKLEIKR
notes: Humanised CA8, heavy chain J0 with light chain M1, human IgG1 kappa; also called CA8 J0M1
Kd [1]: 373 pM
Kd [2]: 503 pM

B4: CA8 humanised J2M1 (antibody, human IgG1, kappa, V domains shown)
VH: QVQLVQSGAEVKKPGSSVKVSCKASGYTFTNYWMHWVRQAPGQGLEWMGATYRGHSDTYYNQKFKGRVTITADKSTSTAYMELSSLRSEDTAVYYCTRGAIYNGYDVLDNWGQGTLVTVSS
VL: DIQMTQSPSSLSASVGDRVTITCSASQDISNYLNWYQQKPGKAPKLLIYYTSNLHSGVPSRFSGSGSGTDYTLTISSLQPEDFATYYCQQYRKLPWTFGQGTKLEIKR
notes: Humanised CA8, heavy chain J2 with light chain M1, human IgG1 kappa; also called CA8 J2M1
Kd [1]: 842 pM
Kd [2]: 218 pM

B5: CA8 humanised J1M2 (antibody, human IgG1, kappa, V domains shown)
VH: QVQLVQSGAEVKKPGSSVKVSCKASGYTFTNYWMHWVRQAPGQGLEWMGATYRGHSDTYYNQKFKGRVTITADKSTSTAYMELSSLRSEDTAVYYCARGAIYNGYDVLDNWGQGTLVTVSS
VL: DIQLTQSPSSLSASVGDRVTITCSASQDISNYLNWYQQKPGKAPELVIYYTSNLHSGVPSRFSGSGSGTDYTLTISSLQPEDFATYYCQQYRKLPWTFGQGTKLEIKR
notes: Humanised CA8, heavy chain J1 with light chain M2, human IgG1 kappa; also called CA8 J1M2
Kd [1]: 1140 pM
Kd [2]: 303 pM

B6: CA8 humanised J2M0 (antibody, human IgG1, kappa, V domains shown)
VH: QVQLVQSGAEVKKPGSSVKVSCKASGYTFTNYWMHWVRQAPGQGLEWMGATYRGHSDTYYNQKFKGRVTITADKSTSTAYMELSSLRSEDTAVYYCTRGAIYNGYDVLDNWGQGTLVTVSS
VL: DIQMTQSPSSLSASVGDRVTITCSASQDISNYLNWYQQKPGKAPKLLIYYTSNLHSGVPSRFSGSGSGTDFTLTISSLQPEDFATYYCQQYRKLPWTFGQGTKLEIKR
notes: Humanised CA8, heavy chain J2 with light chain M0, human IgG1 kappa; also called CA8 J2M0
Kd [1]: 1940 pM
Kd [2]: 538 pM

B7: CA8 humanised J3M1 (antibody, human IgG1, kappa, V domains shown)
VH: QVQLVQSGAEVKKPGSSVKVSCKGSGYTFTNYWMHWVRQAPGQGLEWMGATYRGHSDTYYNQKFKGRVTITADTSTSTAYMELSSLRSEDTAVYYCTRGAIYNGYDVLDNWGQGTLVTVSS
VL: DIQMTQSPSSLSASVGDRVTITCSASQDISNYLNWYQQKPGKAPKLLIYYTSNLHSGVPSRFSGSGSGTDYTLTISSLQPEDFATYYCQQYRKLPWTFGQGTKLEIKR
notes: Humanised CA8, heavy chain J3 with light chain M1, human IgG1 kappa; also called CA8 J3M1
Kd [1]: 438 pM
Kd [2]: 196 pM

B8: CA8 humanised J5M2 (antibody, human IgG1, kappa, V domains shown)
VH: QVQLVQSGAEVKKPGSSVKVSCKGSGYTFTNYWMHWVRQAPGQGLEWMGATYRGHSDTYYNQKFKGRVTITADTSTSTAYMELSSLRSEDTAVYYCTRGAIYDGYDVLDNWGQGTLVTVSS
VL: DIQLTQSPSSLSASVGDRVTITCSASQDISNYLNWYQQKPGKAPELVIYYTSNLHSGVPSRFSGSGSGTDYTLTISSLQPEDFATYYCQQYRKLPWTFGQGTKLEIKR
notes: Humanised CA8, heavy chain J5 with light chain M2, human IgG1 kappa; also called CA8 J5M2
Kd [1]: 120 pM
Kd [2]: 109 pM

B9: CA8 humanised J4M2 (antibody, human IgG1, kappa, V domains shown)
VH: QVQLVQSGAEVKKPGSSVKVSCKGSGYTFTNYWMHWVRQAPGQGLEWIGATYRGHSDTYYNQKFKGRATLTADTSTSTAYMELSSLRSEDTAVYYCTRGAIYNGYDVLDNWGQGTLVTVSS
VL: DIQLTQSPSSLSASVGDRVTITCSASQDISNYLNWYQQKPGKAPELVIYYTSNLHSGVPSRFSGSGSGTDYTLTISSLQPEDFATYYCQQYRKLPWTFGQGTKLEIKR
notes: Humanised CA8, heavy chain J4 with light chain M2, human IgG1 kappa; also called CA8 J4M2
Kd [1]: 281 pM
Kd [2]: 179 pM

B10: CA8 humanised J5M1 (antibody, human IgG1, kappa, V domains shown)
VH: QVQLVQSGAEVKKPGSSVKVSCKGSGYTFTNYWMHWVRQAPGQGLEWMGATYRGHSDTYYNQKFKGRVTITADTSTSTAYMELSSLRSEDTAVYYCTRGAIYDGYDVLDNWGQGTLVTVSS
VL: DIQMTQSPSSLSASVGDRVTITCSASQDISNYLNWYQQKPGKAPKLLIYYTSNLHSGVPSRFSGSGSGTDYTLTISSLQPEDFATYYCQQYRKLPWTFGQGTKLEIKR
notes: Humanised CA8, heavy chain J5 with light chain M1, human IgG1 kappa; also called CA8 J5M1
Kd [1]: 145 pM
Kd [2]: 112 pM

B11: CA8 humanised J4M0 (antibody, human IgG1, kappa, V domains shown)
VH: QVQLVQSGAEVKKPGSSVKVSCKGSGYTFTNYWMHWVRQAPGQGLEWIGATYRGHSDTYYNQKFKGRATLTADTSTSTAYMELSSLRSEDTAVYYCTRGAIYNGYDVLDNWGQGTLVTVSS
VL: DIQMTQSPSSLSASVGDRVTITCSASQDISNYLNWYQQKPGKAPKLLIYYTSNLHSGVPSRFSGSGSGTDFTLTISSLQPEDFATYYCQQYRKLPWTFGQGTKLEIKR
notes: Humanised CA8, heavy chain J4 with light chain M0, human IgG1 kappa; also called CA8 J4M0
Kd [1]: 906 pM
Kd [2]: 866 pM

B12: CA8 humanised J0M2 (antibody, human IgG1, kappa, V domains shown)
VH: QVQLVQSGAEVKKPGSSVKVSCKASGGTFSNYWMHWVRQAPGQGLEWMGATYRGHSDTYYNQKFKGRVTITADKSTSTAYMELSSLRSEDTAVYYCARGAIYNGYDVLDNWGQGTLVTVSS
VL: DIQLTQSPSSLSASVGDRVTITCSASQDISNYLNWYQQKPGKAPELVIYYTSNLHSGVPSRFSGSGSGTDYTLTISSLQPEDFATYYCQQYRKLPWTFGQGTKLEIKR
notes: Humanised CA8, heavy chain J0 with light chain M2, human IgG1 kappa; also called CA8 J0M2
Kd [1]: 310 pM
Kd [2]: 563 pM

B13: CA8 humanised J2M2 (antibody, human IgG1, kappa, V domains shown)
VH: QVQLVQSGAEVKKPGSSVKVSCKASGYTFTNYWMHWVRQAPGQGLEWMGATYRGHSDTYYNQKFKGRVTITADKSTSTAYMELSSLRSEDTAVYYCTRGAIYNGYDVLDNWGQGTLVTVSS
VL: DIQLTQSPSSLSASVGDRVTITCSASQDISNYLNWYQQKPGKAPELVIYYTSNLHSGVPSRFSGSGSGTDYTLTISSLQPEDFATYYCQQYRKLPWTFGQGTKLEIKR
notes: Humanised CA8, heavy chain J2 with light chain M2, human IgG1 kappa; also called CA8 J2M2
Kd [1]: 482 pM
Kd [2]: 106 pM

B14: CA8 humanised J4M1 (antibody, human IgG1, kappa, V domains shown)
VH: QVQLVQSGAEVKKPGSSVKVSCKGSGYTFTNYWMHWVRQAPGQGLEWIGATYRGHSDTYYNQKFKGRATLTADTSTSTAYMELSSLRSEDTAVYYCTRGAIYNGYDVLDNWGQGTLVTVSS
VL: DIQMTQSPSSLSASVGDRVTITCSASQDISNYLNWYQQKPGKAPKLLIYYTSNLHSGVPSRFSGSGSGTDYTLTISSLQPEDFATYYCQQYRKLPWTFGQGTKLEIKR
notes: Humanised CA8, heavy chain J4 with light chain M1, human IgG1 kappa; also called CA8 J4M1
Kd [1]: 278 pM
Kd [2]: 203 pM

B15: S307118G03 humanised H2L0 (antibody, human IgG1, kappa, V domains shown)
VH: QVQLVQSGAEVKKPGSSVKVSCKASGYTFTDYYMKWVRQAPGQGLEWMGEIYPNNGGITYNQKFKGRVTITADKSTSTAYMELSSLRSEDTAVYYCANGYEFVYWGQGTLVTVSS
VL: DIQMTQSPSSLSASVGDRVTITCSASQGISNYLNWYQQKPGKAPKLLIYYTSSLHSGVPSRFSGSGSGTDFTLTISSLQPEDFATYYCQQYSKLPWTFGQGTKLEIKR
notes: Humanised, human IgG1 kappa
Kd [1]: 6360 pM
binding result [2]: no binding

B16: CA8 humanised J3M2 (antibody, human IgG1, kappa, V domains shown)
VH: QVQLVQSGAEVKKPGSSVKVSCKGSGYTFTNYWMHWVRQAPGQGLEWMGATYRGHSDTYYNQKFKGRVTITADTSTSTAYMELSSLRSEDTAVYYCTRGAIYNGYDVLDNWGQGTLVTVSS
VL: DIQLTQSPSSLSASVGDRVTITCSASQDISNYLNWYQQKPGKAPELVIYYTSNLHSGVPSRFSGSGSGTDYTLTISSLQPEDFATYYCQQYRKLPWTFGQGTKLEIKR
notes: Humanised CA8, heavy chain J3 with light chain M2, human IgG1 kappa; also called CA8 J3M2
Kd [1]: 362 pM
Kd [2]: 159 pM

B17: CA8 humanised J5M0 (antibody, human IgG1, kappa, V domains shown)
VH: QVQLVQSGAEVKKPGSSVKVSCKGSGYTFTNYWMHWVRQAPGQGLEWMGATYRGHSDTYYNQKFKGRVTITADTSTSTAYMELSSLRSEDTAVYYCTRGAIYDGYDVLDNWGQGTLVTVSS
VL: DIQMTQSPSSLSASVGDRVTITCSASQDISNYLNWYQQKPGKAPKLLIYYTSNLHSGVPSRFSGSGSGTDFTLTISSLQPEDFATYYCQQYRKLPWTFGQGTKLEIKR
notes: Humanised CA8, heavy chain J5 with light chain M0, human IgG1 kappa; also called CA8 J5M0
Kd [1]: 87 pM
Kd [2]: 25 pM

B18: CA8 humanised J1M0 (antibody, human IgG1, kappa, V domains shown)
VH: QVQLVQSGAEVKKPGSSVKVSCKASGYTFTNYWMHWVRQAPGQGLEWMGATYRGHSDTYYNQKFKGRVTITADKSTSTAYMELSSLRSEDTAVYYCARGAIYNGYDVLDNWGQGTLVTVSS
VL: DIQMTQSPSSLSASVGDRVTITCSASQDISNYLNWYQQKPGKAPKLLIYYTSNLHSGVPSRFSGSGSGTDFTLTISSLQPEDFATYYCQQYRKLPWTFGQGTKLEIKR
notes: Humanised CA8, heavy chain J1 with light chain M0, human IgG1 kappa; also called CA8 J1M0
Kd [1]: 2820 pM
Kd [2]: 849 pM

B19: CA8 humanised J1M1 (antibody, human IgG1, kappa, V domains shown)
VH: QVQLVQSGAEVKKPGSSVKVSCKASGYTFTNYWMHWVRQAPGQGLEWMGATYRGHSDTYYNQKFKGRVTITADKSTSTAYMELSSLRSEDTAVYYCARGAIYNGYDVLDNWGQGTLVTVSS
VL: DIQMTQSPSSLSASVGDRVTITCSASQDISNYLNWYQQKPGKAPKLLIYYTSNLHSGVPSRFSGSGSGTDYTLTISSLQPEDFATYYCQQYRKLPWTFGQGTKLEIKR
notes: Humanised CA8, heavy chain J1 with light chain M1, human IgG1 kappa; also called CA8 J1M1
Kd [1]: 1510 pM
Kd [2]: 442 pM

B20: CA8 humanised J3M0 (antibody, human IgG1, kappa, V domains shown)
VH: QVQLVQSGAEVKKPGSSVKVSCKGSGYTFTNYWMHWVRQAPGQGLEWMGATYRGHSDTYYNQKFKGRVTITADTSTSTAYMELSSLRSEDTAVYYCTRGAIYNGYDVLDNWGQGTLVTVSS
VL: DIQMTQSPSSLSASVGDRVTITCSASQDISNYLNWYQQKPGKAPKLLIYYTSNLHSGVPSRFSGSGSGTDFTLTISSLQPEDFATYYCQQYRKLPWTFGQGTKLEIKR
notes: Humanised CA8, heavy chain J3 with light chain M0, human IgG1 kappa; also called CA8 J3M0
Kd [1]: 1370 pM
Kd [2]: 526 pM
